No end group written: not given here. *: point of attachment. FITC = O=C1OC2(c3ccc(O)cc3Oc3cc(O)ccc32)c2ccc(NC(=S)*)cc21

The results in this text go back to paper PMC4807281, “Glutathionylation of the Bacterial Hsp70 Chaperone DnaK Provides a Link between Oxidative Stress and the Heat Shock Response*” (The Journal of Biological Chemistry, 2016).

The target of assay [1] is T1, DnaK, untreated control (E. coli, UniProt P0A6Y8 1-638). The assay is described as follows: fluorescence polarisation; steady state; 20 nM FITC-…, increasing concentrations of DnaK, Buffer B, room temperature; ATP state. To be noted: both partners purified. For orientation: Polarisation of emitted light reports the rotation of a fluorescent probe.
T1 sequence (P0A6Y8 whole entry): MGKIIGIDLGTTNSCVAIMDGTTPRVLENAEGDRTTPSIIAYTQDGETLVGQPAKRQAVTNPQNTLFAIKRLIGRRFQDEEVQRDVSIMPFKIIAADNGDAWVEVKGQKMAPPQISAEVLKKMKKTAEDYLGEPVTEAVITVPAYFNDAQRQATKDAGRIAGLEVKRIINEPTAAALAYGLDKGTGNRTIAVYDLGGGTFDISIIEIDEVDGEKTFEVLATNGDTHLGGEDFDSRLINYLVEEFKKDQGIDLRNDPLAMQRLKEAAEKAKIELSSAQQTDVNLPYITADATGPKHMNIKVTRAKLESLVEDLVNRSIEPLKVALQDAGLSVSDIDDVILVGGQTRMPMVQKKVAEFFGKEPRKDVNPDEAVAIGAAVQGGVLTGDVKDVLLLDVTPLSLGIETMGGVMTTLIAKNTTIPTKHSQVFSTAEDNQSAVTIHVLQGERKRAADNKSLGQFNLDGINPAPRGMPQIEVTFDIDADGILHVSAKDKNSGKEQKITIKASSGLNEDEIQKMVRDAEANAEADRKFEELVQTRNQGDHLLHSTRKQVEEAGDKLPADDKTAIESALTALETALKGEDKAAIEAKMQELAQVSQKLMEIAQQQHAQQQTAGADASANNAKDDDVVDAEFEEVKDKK
The target in assay [2] is T2, DnaK, glutathionylated at Cys-15 (E. coli, UniProt P0A6Y8 1-638, S-glutathionylated cysteine at Cys-15).
T2 construct: DnaK (bacterial Hsp70), E. coli, gene dnaK cloned from genomic DNA of E. coli C41 cells; primers from the start to the stop codon; the single cysteine Cys-15 carries glutathione; Modification reported as complete by Alexa Fluor 350 staining and mass spectrometry; also called glutathionylated DnaK; not shown: His6, N-terminal, cleaved; Smt3, N-terminal, cleaved
T2 sequence (P0A6Y8 whole entry): as above
Nature of the assay: fluorescence polarisation; steady state; 20 nM FITC-…, increasing concentrations of DnaK, 60 min incubation, Buffer B (50 mM Tris-HCl pH 7.5, 100 mM KCl, 5 mM MgCl2), room temperature; apo or ADP state; single site binding model. To be noted: both partners purified.

The target of assay [3] is T3, DnaK, deglutathionylated (E. coli, UniProt P0A6Y8 1-638).
T3 construct: DnaK (bacterial Hsp70), E. coli, gene dnaK cloned from genomic DNA of E. coli C41 cells; primers from the start to the stop codon; also called deglutathionylated DnaK; not shown: His6, N-terminal, cleaved; Smt3, N-terminal, cleaved
T3 sequence (P0A6Y8 whole entry): as above
The description is as above. The following applies: both partners purified.

Assay [4] addresses T1, DnaK, untreated control. The assay is described as above. The following applies: both partners purified.
Assay [5] deals with T2, DnaK, glutathionylated at Cys-15. Nature of the assay: cell-based or functional assay.
The target in assay [6] is T1, DnaK, untreated control. The assay is described as follows: cell-based or functional assay.
The target of assay [7] is T2, DnaK, glutathionylated at Cys-15. Nature of the assay: pull-down; 2 μM His6-DnaJ, 5 μM His6-GrpE or 2 μM His6-Smt3-σ^32 with 20 μM DnaK, Buffer B, 1 mM ADP, 8 °C, 60 min; Ni-Sepharose HP; wash 300 mM KCl, 40 mM imidazole; elution 300 mM imidazole; SDS-PAGE, Coomassie. The following applies: both partners purified.
Assay [8] has as its target T3, DnaK, deglutathionylated. The assay is described as above. The following applies: both partners purified.
Assay [9] deals with T1, DnaK, untreated control. The description is as above. To be noted: both partners purified.

In the case of {FITC}-ALLLSAPRR (also called FAR) [FITC-ALLLSAPRR peptide], the Kd (as a rule, the free concentration of one partner at which half of the binding sites on the other are occupied at equilibrium, for simple one-to-one binding) was not below 10000 nM with DnaK, untreated control [1]; 4000 to 6000 nM in assay [2]; 200 to 500 nM with DnaK, deglutathionylated [3]; 200 to 500 nM with DnaK, untreated control [4].

B1: His6-DnaJ (natural protein, E. coli, UniProt P08622 1-376, looked up)
chain: MAKQDYYEILGVSKTAEEREIRKAYKRLAMKYHPDRNQGDKEAEAKFKEIKEAYEVLTDSQKRAAYDQYGHAAFEQGGMGGGGFGGGADFSDIFGDVFGDIFGGGRGRQRAARGADLRYNMELTLEEAVRGVTKEIRIPTLEECDVCHGSGAKPGTQPQTCPTCHGSGQVQMRQGFFAVQQTCPHCQGRGTLIKDPCNKCHGHGRVERSKTLSVKIPAGVDTGDRIRLAGEGEAGEHGAPAGDLYVQVQVKQHPIFEREGNNLYCEVPINFAMAALGGEIEVPTLDGRVKLKVPGETQTGKLFRMRGKGVKSVRGGAQGDLLCRVVVETPVGLNERQKQLLQELQESFGGPTGEHNSPRSKSFFDGVKKFFDDLTR
As for B1, the “acceleration of ATP turnover of DnaK by DnaJ, malachite green ATPase assay, DnaJ to DnaK ratio 2:1” value in assay [5] turned out to be 2 fold; in the assay with DnaK, untreated control [6], 6 fold.

B2: His6-Smt3-σ^32 (natural protein, E. coli, UniProt P0AGB3 1-284, looked up)
chain: MTDKMQSLALAPVGNLDSYIRAANAWPMLSADEERALAEKLHYHGDLEAAKTLILSHLRFVVHIARNYAGYGLPQADLIQEGNIGLMKAVRRFNPEVGVRLVSFAVHWIKAEIHEYVLRNWRIVKVATTKAQRKLFFNLRKTKQRLGWFNQDEVEMVARELGVTSKDVREMESRMAAQDMTFDLSSDDDSDSQPMAPVLYLQDKSSNFADGIEDDNWEEQAANRLTDAMQGLDERSQDIIRARWLDEDNKSTLQELADRYGVSAERVRQLEKNAMKKLRAAIEA
notes: σ^32 subunit of RNA polymerase (heat shock sigma factor), E. coli, gene rpoH cloned from genomic DNA of E. coli C41 cells; primers from the start to the stop codon; The His6-Smt3 tag (pET28a-SMT3) was not cleaved from σ^32; order of the tags from the printed label; also called heat shock transcription factor σ^32; not shown: His6, N-terminal, kept; Smt3, N-terminal, kept
Take B2: the binding result is recorded as “binds” in [7]; “binds” in the assay with DnaK, deglutathionylated [8]; “binds” in the assay with DnaK, untreated control [9].

B3: His6-GrpE (natural protein, E. coli, UniProt P09372 1-197, looked up)
chain: MSSKEQKTPEGQAPEEIIMDQHEEIEAVEPEASAEQVDPRDEKVANLEAQLAEAQTRERDGILRVKAEMENLRRRTELDIEKAHKFALEKFINELLPVIDSLDRALEVADKANPDMSAMVEGIELTLKSMLDVVRKFGVEVIAETNVPLDPNVHQAIAMVESDDVAPGNVLGIMQKGYTLNGRTIRAAMVTVAKAKA
notes: GrpE (nucleotide exchange factor of DnaK), E. coli, gene grpE cloned from genomic DNA of E. coli C41 cells; primers from the start to the stop codon; Uncleavable His6 tag from the mini pRSETa plasmid; not shown: His6, N-terminal, kept
In the case of B3, the binding result in [7] is reported as “binds”; with DnaK, deglutathionylated [8] it was “binds”; with DnaK, untreated control [9], “binds”.
